In experiment [1] the target is SARS-CoV-2 spike trimer (S trimer), soluble ectodomain (SARS-CoV-2) (UniProt P0DTC2). Nature of the experiment: cryo-EM structure.
Experiment [2] deals with SARS-CoV-2 spike trimer (S trimer), soluble ectodomain (SARS-CoV-2, Wuhan-Hu-1 type). Description: cryo-EM structure.

With 2-43 Fab, the stoichiometry N (Fab per trimer) in experiment [1] was 3. The substance 4-8 Fab registered a stoichiometry N (Fab per trimer) in experiment [2] of 3.
